This note sets out measurements from paper doi:10.1101/2020.07.15.204859.

This test has as its target T1, S. Typhimurium 14028S HNS (STM14_2116) (Salmonella enterica serovar Typhimurium 14028S), P0A1S2.
T1 chain: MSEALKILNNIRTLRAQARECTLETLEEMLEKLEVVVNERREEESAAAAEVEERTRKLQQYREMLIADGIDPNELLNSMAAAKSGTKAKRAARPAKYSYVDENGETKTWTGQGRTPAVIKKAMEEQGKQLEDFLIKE
Briefly: SEC. The following applies: remark: other sources report otherwise.

B1: S. Typhimurium 14028S HNS (STM14_2116), P0A1S2 1-137 (natural protein)
chain: MSEALKILNNIRTLRAQARECTLETLEEMLEKLEVVVNERREEESAAAAEVEERTRKLQQYREMLIADGIDPNELLNSMAAAKSGTKAKRAARPAKYSYVDENGETKTWTGQGRTPAVIKKAMEEQGKQLEDFLIKE
With B1, the stoichiometry N was 2.

For orientation: stoichiometry N means the number of molecules, sites or subunits per partner or assembly.
